Results as given in patent US9618524B2, “Method, composition, isolation and identification of a plaque particle and related biomarker” (Plaxgen Inc., priority 2012, dated 2017).

B1: Corticosteroid-binding globulin (protein)
chain: MDPNAAYVNMSNHHRGLASANVDFAFSLYKHLVALSPKKNIFISPVSISMALAMLSLGTCGHTRAQLLQGLGFNLTERSETEIHQGFQHLHQLFAKSDTSLEMTMGNALFLDGSLELLESFSADIKHYYESEVLAMNFQDWATASRQINSYVKNKTQGKIVDLFSGLDSPAILVLVNYIFFKGTWTQPFDLASTREENFYVDETTVVKVPMMLQSSTISYLHDSELPCQLVQMNYVGNGTVFFILPDKGKMNTVIAALSRDTINRWSAGLTSSQVDLYIPKVTISGVYDLGDVLEEMGIADLFTNQANFSRITQDAQLKSSKVVHKAVLQLNEEGVDTAGSTGVTLNLTSKPIILRFNQPFIIMIFDHFTWSSLFLARVMNPV
B2: Pigment epithelium-derived factor (protein)
chain: QNPASPPEEGSPDPDSTGALVEEEDPFFKVPVNKLAAAVSNFGYDLYRVRSSTSPTTNVLLSPLSVATALSALSLGAEQRTESIIHRALYYDLISSPDIHGTYKELLDTVTAPQKNLKSASRIVFEKKLRIKSSFVAPLEKSYGTRPRVLTGNPRLDLQEINNWVQAQMKGKLARSTKEIPDEISILLLGVAHFKGQWVTKFDSRKTSLEDFYLDEERTVRVPMMSDPKAVLRYGLDSDLSCKIAQLPLTGSMSIIFFLPLKVTQNLTLIEESLTSEFIHDIDRELKTVQAVLTVPKLKLSYEGEVTKSLQEMKLQSLFDSPDFSKITGKPIKLTQVEHRAGFEWNEDGAGTTPSPGLQPAHLTFPLDYHLNQPFIFVLRDTDTGALLFIGKILDPRGP
B3: Kallistatin (protein)
chain: QLHVEHDGESCSNSSHQQILETGEGSPSLKIAPANADFAFRFYYLIASETPGKNIFFSPLSISAAYAMLSLGACSHSRSQILEGLGFNLTELSESDVHRGFQHLLHTLNLPGHGLETRVGSALFLSHNLKFLAKFLNDTMAVYEAKLFHTNFYDTVGTIQLINDHVKKETRGKIVDLVSELKKDVLMVLVNYIYFKALWEKPFISSRTTPKDFYVDENTTVRVPMMLQDQEHHWYLHDRYLPCSVLRMDYKGDATVFFILPNQGKMREIEEVLTPEMLMRWNNLLRKRNFYKKLELHLPKFSISGSYVLDQILPRLGFTDLFSKWADLSGITKQQKLEASKSFHKATLDVDEAGTEAAAATSFAIKFFSAQTNRHILRFNRPFLVVIFSTSTQSVLFLGKVVDPTKP
B4: Isoform 2 of Apolipoprotein L1 (protein)
chain: EEAGARVQQNVPSGTDTGDPQSKPLGDWAAGTMDPESSIFIEDAIKYFKEKVSTQNLLLLLTDNEAWNGFVAAAELPRNEADELRKALDNLARQMIMKDKNWHDKGQQYRNWFLKEFPRLKSELEDNIRRLRALADGVQKVHKGTTIANVVSGSLSISSGILTLVGMGLAPFTEGGSLVLLEPGMELGITAALTGITSSTMDYGKKWWTQAQAHDLVIKSLDKLKEVREFLGENISNFLSLAGNTYQLTRGIGKDIRALRRARANLQSVPHASASRPRVTEPISAESGEQVERVNEPSILEMSRGVKLTDVAPVSFFLVLDVVYLVYESKHLHEGAKSETAEELKKVAQELEEKLNILNNNYKILQADQEL
B5: Insulin-like growth factor-binding protein complex (protein)
chain: ADPGTPGEAEGPACPAACVCSYDDDADELSVFCSSRNLTRLPDGVPGGTQALWLDGNNLSSVPPAAFQNLSSLGFLNLQGGQLGSLEPQALLGLENLCHLHLERNQLRSLALGTFAHTPALASLGLSNNRLSRLEDGLFEGLGSLWDLNLGWNSLAVLPDAAFRGLGSLRELVLAGNRLAYLQPALFSGLAELRELDLSRNALRAIKANVFVQLPRLQKLYLDRNLIAAVAPGAFLGLKALRWLDLSHNRVAGLLEDTFPGLLGLRVLRLSHNAIASLRPRTFKDLHFLEELQLGHNRIRQLAERSFEGLGQLEVLTLDHNQLQEVKAGAFLGLTNVAVMNLSGNCLRNLPEQVFRGLGKLHSLHLEGSCLGRIRPHTFTGLSGLRRLFLKDNGLVGIEEQSLWGLAELLELDLTSNQLTHLPHRLFQGLGKLEYLLLSRNRLAELPADALGPLQRAFWLDVSHNRLEALPNSLLAPLGRLRYLSLRNNSLRTFTPQPPGLERLWLEGNPWDCGCPLKALRDFALQNPSAVPRFVQAICEGDDCQPPAYTYNNITCASPPEVVGLDLRDLSEAHFAPC
B6: Carboxypeptidase N subunit 2 (protein)
chain: CPMGCDCFVQEVFCSDEELATVPLDIPPYTKNIIFVETSFTTLETRAFGSNPNLTKVVFLNTQLCQFRPDAFGGLPRLEDLEVTGSSFLNLSTNIFSNLTSLGKLTLNFNMLEALPEGLFQHLAALESLHLQGNQLQALPRRLFQPLTHLKTLNLAQNLLAQLPEELFHPLTSLQTLKLSNNALSGLPQGVFGKLGSLQELFLDSNNISELPPQVFSQLFCLERLWLQRNAITHLPLSIFASLGNLTFLSLQWNMLRVLPAGLFAHTPCLVGLSLTHNQLETVAEGTFAHLSNLRSLMLSYNAITHLPAGIFRDLEELVKLYLGSNNLTALHPALFQNLSKLELLSLSKNQLTTLPEGIFDTNYNLFNLALHGNPWQCDCHLAYLFNWLQQYTDRLLNIQTYCAGPAYLKGQVVPALNEKQLVCPVTRDHLGFQVTWPDESKAGGSWDLAVQERAARSQCTYSNPEGTVVLACDQAQCRWLNVQLSPQQGSLGLQYNASQEWDLRSSCGSLRLTVSIEARAAGP
B7: Leucine-rich alpha-2-glycoprotein (protein)
chain: VTLSPKDCQVFRSDHGSSISCQPPAEIPGYLPADTVHLAVEFFNLTHLPANLLQGASKLQELHLSSNGLESLSPEFLRPVPQLRVLDLTRNALTGLPPGLFQASATLDTLVLKENQLEVLEVSWLHGLKALGHLDLSGNRLRKLPPGLLANFTLLRTLDLGENQLETLPPDLLRGPLQLERLHLEGNKLQVLGKDLLLPQPDLRYLFLNGNKLARVAAGAFQGLRQLDMLDLSNNSLASVPEGLWASLGQPNWDMRDGFDISGNPWICDQNLSDLYRWLQAQKDKMFSQNDTRCAGPEAVKGQTLLAVAKSQ
B8: Serum amyloid A-4 protein (protein)
chain: ESWRSFFKEALQGVGDMGRAYWDIMISNHQNSNRYLYARGNYDAAQRGPGGVWAAKLISRSRVYLQGLIDCYLFGNSSTVLEDSKSNEKAEEWGRSGKDPDRFRPDGLPKKY

Biological target: T1, Abeta-42 plaque particles (Homo sapiens, UniProt P05067)
T1 construct: Abeta 1-42
Experiment: Mass spectroscopy proteomics, semi-quantitative binding affinity of serum proteins (plaqueproteome, Table 2)
Settings: higher number = stronger affinity
Summary of the method: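 AD patient serum or plasma (50% in PBS) was incubated with Abeta-42 aggregates (30 μg) for 1 h at 37 °C, then stained with Thioflavin S for 30 min. Labeled particles were FACS-sorted, trypsin/Lys-C digested overnight and analyzed by MS/MS. Sequest searched human UniProt; Scaffold/Protein Prophet validated the identifications.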

Point of comparison: B2, “Semi-quantitative analysis of proteins binding to different plaque particles: Abeta-42” value 5. Against it:
- B1 — lower, 0
- B3 — lower, 0
- B4 — lower, 0
- B5 — lower, 0
- B6 — lower, 0
- B7 — lower, 2
- B8 — lower, 2

System: High Density cholesterol (Chl Large) plaque particles
Experiment: as above
Parameters: species or system human
Settings: higher number = stronger affinity
Summary of the method: (§1)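 Serum or plasma from atherosclerotic subjects, as 50% serum, was incubated with 30 μg cholesterol aggregates for 1 h at 37 °C. High- and low-density particles were then flow-sorted, trypsin-digested and analysed by MS/MS. Proteins were identified by Sequest search against human UniProt and validated with Protein Prophet.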

Point of comparison: B4, “Semi-quantitative analysis of proteins binding to different plaque particles: Chl Large” value 1. Against it:
- B1 — higher, 2
- B2 — higher, 4
- B3 — the same, 1
- B5 — the same, 1
- B6 — lower, 0
- B7 — higher, 2
- B8 — the same, 1

System: Low density cholesterol (Chl small) plaque particles
Experiment: as above
Parameters: species or system human
Settings: higher number = stronger affinity
Summary of the method: as §1

Point of comparison: B3, “Semi-quantitative analysis of proteins binding to different plaque particles: Chl small” value 0. Against it:
- B1 — higher, 3
- B2 — higher, 3
- B4 — higher, 1
- B5 — higher, 1
- B6 — higher, 1
- B7 — higher, 3
- B8 — higher, 1

Biological target: T2, alpha-synuclein plaque particles (Homo sapiens, UniProt P37840)
T2 construct: 140 amino acids polypeptide
Experiment: as above
Settings: higher number = stronger affinity
Summary of the method: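 AD-subject plasma or serum (800 μL of 50%) mixed with 30 μg preformed alpha-synuclein aggregates for 1 h at 37 °C; Thioflavin S-positive particles isolated by flow sorting. After reduction, acrylamide alkylation and overnight tryptic digestion, serum proteins identified by MS/MS with Sequest and Scaffold.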

Point of comparison: B6, “Semi-quantitative analysis of proteins binding to different plaque particles: Synuclein” value 2. Against it:
- B1 — lower, 1
- B2 — higher, 4
- B3 — lower, 0
- B4 — lower, 0
- B5 — lower, 0
- B7 — the same, 2
- B8 — lower, 1

System: Tau plaque particles
Experiment: as above
Parameters: species or system human
Settings: higher number = stronger affinity
Summary of the method: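 Synthetic Tau-74 and Tau-275 peptides (1 mg/mL PBS, 37° C, 2 h) aggregated; 30 μg aggregates incubated with 50% serum/plasma 1 h at 37° C, stained with Thioflavin S, and plaque particles sorted by flow cytometry. Bound proteins trypsin-digested and identified by MS/MS against human UniProt.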

Point of comparison: B5, “Semi-quantitative analysis of proteins binding to different plaque particles: Tau” value 1. Against it:
- B1 — the same, 1
- B2 — higher, 4
- B3 — the same, 1
- B4 — higher, 2
- B6 — the same, 1
- B7 — the same, 1
- B8 — higher, 4
